{
  "source": "paper PMC4835703",
  "key": {"MD2-GFP [1]": {"target": "MD2-GFP (UniProt Q9Y6Y9)", "sequence (Q9Y6Y9 19-160)": "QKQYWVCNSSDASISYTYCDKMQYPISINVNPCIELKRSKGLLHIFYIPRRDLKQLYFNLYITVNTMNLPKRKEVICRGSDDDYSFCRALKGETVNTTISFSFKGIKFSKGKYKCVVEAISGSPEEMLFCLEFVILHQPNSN", "assay": "MST; GFP-tagged receptors in lysates of transfected HEK293 cells (RIPA buffer), diluted according to fluorescence intensity; CnB titrated in 16 1:1 dilutions; 25 °C"}, "[2]": {"target": "CD14-GFP (full-length membrane-anchored CD14 from transfected HEK293 lysates) (UniProt P08571)", "sequence (P08571 20-367)": "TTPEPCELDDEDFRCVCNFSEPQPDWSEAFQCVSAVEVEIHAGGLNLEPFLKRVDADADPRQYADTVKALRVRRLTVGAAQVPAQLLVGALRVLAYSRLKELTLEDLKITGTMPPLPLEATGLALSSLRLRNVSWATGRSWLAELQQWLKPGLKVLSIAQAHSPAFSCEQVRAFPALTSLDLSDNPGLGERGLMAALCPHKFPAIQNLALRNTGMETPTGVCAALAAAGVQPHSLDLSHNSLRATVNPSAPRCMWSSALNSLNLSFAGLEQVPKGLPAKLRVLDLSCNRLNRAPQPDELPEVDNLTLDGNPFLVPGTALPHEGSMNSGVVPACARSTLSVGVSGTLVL", "assay": "MST; GFP-tagged receptors in lysates of transfected HEK293 cells (RIPA buffer), diluted according to fluorescence intensity; CnB titrated in 16 1:1 dilutions; 25 °C"}, "[3]": {"target": "TLR4-GFP (full-length TLR4 from transfected HEK293 lysates) (UniProt O00206)", "sequence (O00206 24-839)": "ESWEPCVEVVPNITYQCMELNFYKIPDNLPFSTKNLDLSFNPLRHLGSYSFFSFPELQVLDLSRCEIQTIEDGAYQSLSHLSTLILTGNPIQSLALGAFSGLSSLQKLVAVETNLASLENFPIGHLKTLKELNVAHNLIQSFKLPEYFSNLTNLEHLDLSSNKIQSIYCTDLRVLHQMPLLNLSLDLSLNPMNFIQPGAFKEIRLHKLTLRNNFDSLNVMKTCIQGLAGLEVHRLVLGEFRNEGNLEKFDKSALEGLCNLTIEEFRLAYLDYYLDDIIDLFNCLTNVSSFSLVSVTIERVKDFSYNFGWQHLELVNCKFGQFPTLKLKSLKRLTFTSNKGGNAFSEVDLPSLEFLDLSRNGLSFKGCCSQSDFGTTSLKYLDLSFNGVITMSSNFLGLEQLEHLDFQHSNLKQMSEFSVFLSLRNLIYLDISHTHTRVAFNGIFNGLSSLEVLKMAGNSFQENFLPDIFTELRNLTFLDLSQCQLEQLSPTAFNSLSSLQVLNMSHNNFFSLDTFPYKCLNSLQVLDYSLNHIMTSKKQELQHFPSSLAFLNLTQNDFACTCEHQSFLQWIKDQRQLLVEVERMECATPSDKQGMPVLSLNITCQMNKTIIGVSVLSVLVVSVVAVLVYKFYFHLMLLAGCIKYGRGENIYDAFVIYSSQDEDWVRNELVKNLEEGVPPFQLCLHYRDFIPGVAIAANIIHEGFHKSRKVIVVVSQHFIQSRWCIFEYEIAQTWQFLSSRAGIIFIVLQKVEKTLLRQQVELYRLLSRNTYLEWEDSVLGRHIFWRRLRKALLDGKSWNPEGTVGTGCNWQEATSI", "assay": "MST; GFP-tagged receptors in lysates of transfected HEK293 cells (RIPA buffer), diluted according to fluorescence intensity; CnB titrated in 16 1:1 dilutions; 25 °C"}, "MD2-GFP [4]": {"target": "MD2-GFP (UniProt Q9Y6Y9)", "assay": "MST; secreted MD2-GFP in the culture supernatant of transfected 293 cells grown in suspension; CnB titrated in 16 1:1 dilutions"}},
  "data": [
    {"substance": "recombinant calcineurin B (from UniProt P63098 1-170) (natural protein; other documents disagree on this pair)", "values": [
      {"measurement": "Kd", "setting": "MD2-GFP [1]", "result": 7.43, "unit": "µM"},
      {"measurement": "Kd", "setting": "[2]", "result": 34.8, "unit": "µM"},
      {"measurement": "Kd", "setting": "[3]", "result": 6.5, "unit": "µM"},
      {"measurement": "Kd", "setting": "MD2-GFP [4]", "result": 74, "unit": "µM"}
    ]}
  ]
}
